Reference: patent US20260241035A1, “FUNCTIONAL NUCLEIC ACID MOLECULE AND METHOD” (THE UNIVERSITY COURT OF THE UNIVERSITY OF EDINBURGH, priority 2022, published 2026)

System: GSC7 cells
Assay: Nano-Glo Dual-Luciferase Reporter (Nanoglo DLR) assay of enhancer activity, fold change to mCMV
Type: cell-based, human
Conditions: expression fold change of the individual enhancer compared to mCMV
Description: We chose an arrayed library format, with 160 bp enhancer fragments individually cloned into separate plasmids and arrayed in 96 well plates. These 160 bp were synthesized as a single pool of oligos, then randomly cloned into the plasmid and isolated. 20 bp×2 were needed for PCR amplification of the pool and so a library of 200 bp fragments was synthesized (Twist Biosciences). To meet our oligo synthesis strategy, ChIP-seq peaks expressed by GSCs were merged into a single oligo. This oligonucleotide pool was PCR-amplified (using limited cycles to reduce bias and ‘jackpot’ products meaning products which are easier to amplify will overtake the oligonucleotide pool) and cloned into the expression vector by an efficient Golden Gate reaction. 4579 individual plasmids were then randomly picked, isolated and plated as an arrayed plasmid DNA library on 96 well plates (×48). The bacterial colony picking and production of plasmid minipreps were supported by the Edinburgh Genome Foundry (S. Rosser). This library was then screened using the optimised Nanoglo DLR assay (Nano-Glo Dual-Luciferase Reporter Assay, Promega) in 384 well format. Each plate was transiently transfected together with PGK-FFLuc in a 1:10 ratio into GSC7 cells. 2 days later a Nanoglo DLR assay was performed and assayed on a plate reader.
Cells were seeded in 384 well plates using a multidrop and transfected the following day using the CyBio Felix. Two days later the experiment was terminated with a Nanoglo DLR assay and all hits with a fold change to mCMV greater than 10 were Sanger sequenced and mapped back to the genome.
Cells were seeded at the required density. The following day the transfection was carried out. For this the Plus reagent and Lipofectamine LTX (Life Technologies, 15338030) were each diluted in half the volume of Opti-MEM I Reduced-Serum Medium (further referred to as Optimem) (Life Technologies, 31985062). Following this step, the Plus reagent/Optimem premix was added to all DNA samples followed by the Lipofectamine LTX/Optimem premix. The transfection mix was incubated for 5 min at room temperature and then carefully dropped on the cells. Generally, no media change was carried out. Cells were analysed two days following transfection.
This assay consists of two steps. The transfection was carried out using a normalisation plasmid PGK-Firefly-Luciferase (Promega, E5011) that was transfected in a 1/10 ratio with the plasmid of interest. First, the Firefly Luciferase activity is measured which allows to normalise to transfection efficiency. In a second step, the activity of Nanoluc is determined which is the readout of the plasmid of interest. Cells were washed 3× with PBS and 20 μl was left in the 96 well plate after the final wash (25 μl in 384 well). Oneglo buffer was added and the plate was shaken for 5 min at 480 rpm to allow cell lysis. 20 μl cell lysate in 96 well format or 25 μl cell lysate in 384 well format was then transferred into the corresponding opaque white plate and luminescence was measured at for 0.1 s per well using the Ensight Multimode Plate Reader. For the following Nanoluc reaction in a 96 well format 2 μl cell lysate was transferred into an opaque white plate containing 40 μl PBS, and 20 μl Stopglo buffer, supplemented with substrate, was added to each well. In a 384 well format 20 μl Stopglo buffer containing substrate were added on top of the undiluted cell lysate. The plate was shaken again for 5 min at 480 rpm to quench the firefly luciferase reaction and ensure good mixing. Nanoluc activity was measured for 0.1 s per well, again using Ensight Multimode Plate Reader.
Data obtained by the Nanoluc reaction was normalised to Firefly reaction to account for well-to-well variability of transfection efficiency. Normalised data were used to calculate the fold change to the empty vector control mCMV.

Molecule	Fold change (Median)
CSE012: clustered SOX dimer motif enhancer, SEQ ID NO: 40 (nucleic acid) DNA: GTAGAGAATAGATTCTGTAGGGCTTTTAACCTCCACTGTTATTCCAAGGATGGGGCTCAGCTTCCTTCTTTTCCTTTCTGACTCTGTCTATATCAAGGGTCCCGTGGGTTGTTCCTTTCCATTGTGGTCTCACTGCCCAGCTTTAAGGCACCATCCTGGCACAGTGATAGGTTTACCTTTGTCTAAAAGTGTCCATTTGCATCTCTGTGGCCTTCTTGCCTGGGTGACACCCACTTGATTAGGCATTTGCCCAGTGTGAGATCAGAGTCCCTCATTTACATTTCCCCACAATAGTGAATGGCTTACAGGCTGTTCAAATACAGTTTCTAAACAGTGAATAATTCAGCCAGAAAGCCAGCCTTTTAAGGTTTGGATTTGGGGCATTTCTGAG	10.3 fold
ID4328: enhancer fragment, SEQ ID NO: 7 (nucleic acid) DNA: TACAATCTATTCTCCATAGTCATCAGAGTTTCTTTAAAGGCACGGTTCAGACAATGGCACCCTCTGTTCCAAACCCTCCAGGGCTTCCTATTTCACTTAGCATAAAAACCAAAGTCCTCACAATGACCGACAAGTCTTCACACAATGTGCCCCTTCATTG	100.7 fold
CSE034: clustered SOX dimer motif enhancer, SEQ ID NO: 42 (nucleic acid) DNA: GCCATAATTTGAACCTCGGAGTGCCCCACTGACAGCCAACGACACCAGAGGGTCCCTTTGTATGTAAGGATTGCATGACTCCAGTTGAATGACCCAAGCCGGGGACAAACAGGAAAGAACCCAGCAGCTCTGGAGGCCACTTGAGCTGACTGTCAAATGCTCTGGGCTGATTAACGACTACGAACTTCAGGGAAGACAAGTGTGCTTTGATGCCACAGAGCTATCCTGGGCCTGTACAGGCCCGTTTCTGCTCTGAATGAGGAAGCTGTACTTTGCAGGCACCCGGCAGAACAAGAATAGGGCCTAAGATACCTGAATGAAGGGCACAGAGGAAGTACAAAATACAGTCATTGTTGGAGCTAGAAGCTGGTGCCAGGCTACGAGGGGGCCCAGTGGCCAAGCATTATG	14.3 fold
CSE025: clustered SOX dimer motif enhancer, SEQ ID NO: 45 (nucleic acid) DNA: ATGGACAATGGCAGCCTGAAAGAATATGAGGGAGGGTCACCAGTGATGGACATGGTTTGGGGAGAGCCCAAGAATTGAAGGGGACTTGGGATTGTTGACAGACCTTCCACATCTCAGAATGGGGGAAGTGGTTTCTTTTTTCCTCATTCTCCAAGGCTTCTCAGTCTCAGAGACCCCAAGAGATGCCATTAATACAGATTCCTCCTCTGGCTCCTTTGAGACATTTGCTTTTGAAGGACCTGGAAGAGAAAGCTCTTTGTATGTGGCCAGAATAAACTCATTGTACACCCAAACAATTAACTCCTCAATGGACTTGCCAGCCCCTTGAAAGGCCTGGCCCTGCGTCCCTGGACCTCTTGGGCTCTATTCAGTCCCTTAAGCACACCAATGTTTTTGGGTTTTTGTTTTGTTTTGTTTGTTATTCTGAAAAGTCTTTCCCTGAGAATAGTCTGAGCGGATCAACATTGTCCTCAGCCTGGCATTTATCTCTCCTCGCCAGCGAATGTCAATCAGGAATCAAAAAGCCAAACAGAGGAGGCTTTGAACGGTGTCATCGGGGGTCGAAGTGACTTCCAGCTGTCTGTGCGTGGGCCAGGCCTTCTCGCAGGGCAAGGAATTGTGCTGTCACACAAACCCACTGTCTGTATAGGCTCACAGAGCCCA	21.3 fold
CSE005: clustered SOX dimer motif enhancer, SEQ ID NO: 41 (nucleic acid) DNA: TCCCTTGGAAAGTGTTCAAATCAAAGCTACCTTTATACCACACTCCTTTGTGTCCTGATGTCCTGAATAGTGAGATTATCGGGTACACCCACCTGTTCCTGCACTTCCTTCCTGCTCAATTTAAATAAACAATGAGCTGTTTTTCTTCTTGACAAAGAGCCAGTCTATACAACAGCAGCAGGAAGATTACTTTCTATCTGTATGCAAACAGATACATAGCTGAGTTCTCTCCAATCCCCGGGAAAAGACCCTTTTAACTAAATGACTTATGCTTCT	11.5 fold
CSE033: clustered SOX dimer motif enhancer, SEQ ID NO: 46 (nucleic acid) DNA: CTGGGGAACAAAACTTAGATCTTGATCATCCAGCATAGCTCTGGCATGCTGAGCGTGTGATACACCTGTCTCTACCGTCAGGCAAACGAGTGGGTTCACAGGCAGAGGCCTGCCCTGCCAAACAATGCTCCCCTTTGTCCCCGCCCAGGGCTCAGGAGCCGCAAGGAAGCCAAATCCATCAGCACTTGTCAGGGCCCTTGATGCACACAATGCAAGTTATGATCCACAGTCCCCGGCAAAGCCCCAGGCTTCCAGCAGGCAGCATTAACTGACACGCAATGTGTCAGTCAGCCTTCTAAAAGCCAGGGGTGGGGATCCGTGCCAGGGGGCCACTGAGCTCTCATTCCCAGAAGCCAACCAGAGCC	20.9 fold
CSE088: clustered SOX dimer motif enhancer, SEQ ID NO: 44 (nucleic acid) DNA: CTCGATACCCACATTCCTAACCTTTTAATGCCAAGCAGCCTATAAGCATGTCAAATTTTACTCATGTTCCTGCTCTTTCCACTCAAGTTGGCTTTGTGGGTTGCTGGTTTTATCAAAATTGAGTGAGAGTGTGTTCAATACAATGTTGGATTCATTAGGGAGAAAAAAGCCAAATAAAAACCTTGCTTCTTCAATGCCAGGAGCTTACAAAGACATATAAACCATGAGGAATTCCAAGGACTTGCTCAGAAGCCGTTCTGCAAATGCATTTCTTGAACAAAGGGCCAATGTTCCTTTCAGGGAAGAGCGCGGGACTGGTTTCCGGCATTTTTCTTTAAATCATTAGGACCATGCCAGCAAACAAACATATACAGCCCCTGGGAGAAAGAATCTCATTCAACACAGCTTACAAGAGTTTGATTATTAGGGAGGGGTGCTTCATGGCACGTGCCTCACCAGCCGGCCCCCAAATGTACAGATCTGTTTAAAGGGCTTTATTGATGGTGGCCGCAGACAGATAGAGCTTGTGAGGAGAACTGACATCCCATGGATACTAACATATCAGCATCATCCTGACCAGCACACAATCCAGTCAGAGAGAGCTGAAAAGTCTGCCTCATTCCCTTGAAAATGTGCTTCTTAAGACAAATAAAATATAGAAATAAGAAATTCACCTC	16.5 fold
CSE078: clustered SOX dimer motif enhancer, SEQ ID NO: 43 (nucleic acid) DNA: TGTCGGGCAGCCAAGACCTGTCAGGGACAAGAGTGCTGTGAGCTGCGGGCTGGTGGGTGGAAGGAGAGAGGCCCCTGGTGCTCCTGCCAAGCCAAGGAATGTGTCATTGCTGTGCTGTGCCTTCAGCCTGGCATTTGGGAACAAAGAGGTACTTTGTATGGATAACATAGACCAGGTTGTTGGGGAAGGGATCAGAGATGGGGGTAGACCCATTTTTAAAAATCTGCTCATGTCCCAGGCAAGTTTTTTTGGCAGGGATTGCAGTTGGGCTATTACAAAGAGCTGCTGTACACGAGGGGTATGTCTACTACTGTCAAATTACAGCAGCAATTATCTTGGGCACTG	10 fold
